Laboratory results: paper PMC2885149

Target: adeno-associated virus serotype 3B (AAV-3B) capsid protein subunit (adeno-associated virus serotype 3B)
Test: crystal structure

adeno-associated virus serotype 3B (AAV-3B) capsid protein subunit (natural protein)
stoichiometry N: 60
